Measurements from the DeepSol protein solubility set.

Experiment: soluble on expression in E. coli; label from the status in PepcDB or PDB records

Sequence | soluble on expression in E. coli
MSLNKSVIGTKQMVVSPHYLASQAGNRILDKGGNAFDAAVAVSACLAVVYPHMTGLGGDSFWLTFHQETKAVKVYNGSGRSGKNVTRDVYKGKSAIPLRGIDSAITVPGMVDSWDAVLKEYGRLSLADVLEPARDYAQNGFPVSADQCRHTEKNIELLASTPYTADIFTRRGKAPVPGERFVQKELADSLNLIAEKGRSAFYEGDLAQRIVSHLQNNGSYMTIDDFKAHRGEWAAPVSSDYRGYSVYQAPPNSQGFTGLLTLNILENYDFTQIEHGSFEYYHVLVEALKKSFLDRDAVLTDPAFADIPLERLLDKRYAKQLAEEIGYLAIPAESRPVGSDTAYAAVIDADGNAVSFIQSLYFEFGSAVTAGDTGILLQNRGSFFSLDENHVNTLEPRKRTFHTLMPAMVCKGGKPKILYGTQGGEGQPQTQTAIITRMLDYGMHPQQAISEPRWVWGRTWGEEYEGLRVEGRFTDKTIQKLKDSGHLVEVVGDYDPLMGQAAAIKVDEEGFLQGGADPRGDGAAVGEGHHHHHH | not soluble
MSLNLKDLIERERNCQKKKAFNCSFLDYLDIVKENPEVCKFAHKRIYDLIIKQGFHIVDKNESIKKYNFFGEDFFGIDKTLMKIVNYFYAASMEGEESKQVLYLVGPVGSGKSSIVEAIKIALEDSEPIYALENCPMREEPLHLIPNNLRRKFEKELDLKIEGDLCPVCTYRLREEFNGEIEKFPVQKIGFSIKERRGVGVVPPVDPNNQDTSVLVGSVDISKMDIYSEHDPRIFSLNGAFNVGNRGIVEFIEIFKNDIEYLHSIITATQEKLIPSPGKGSMVYYDGVIIAHSNEGEWNKFKSDPTNEAILDRIVKIEVPYCLELDEEKKIYKKILKNSNFQVHIAPHTIDVAAMFAILTRLNSSEKVDLMTKLKIYNGEEIVEKASIKKIEREELEEECRQKEGMTGVSTRFIIKAINNAICESNCSCINPIDVINSLITAVKEKDLCEEVEDKYISFLEDVVRKEYNKILYKEITKFFIESFNSQGEALFNNYLDHAEAYVNKVYLKDNITGENLDPDEEFMREIEEEIGVTENSSKGFRKDVVAYILYLIRKGEEINCNCYKPLKEAIERKLISSSREISRIINPSKIRNKAQDEKYKFIVEKLKNNGYCDTCAFYTLRYAANNFWRDEGHHHHHH | soluble
MSLNNDRFAKQRVADDLDEPVEEAGNLARKLGLKPYPVNYWIVDYDEMNELIAYGGFQQRYPHWRWGMQYDRQQKQGQFLGGKAFEIVNNDDPAHAFLQESNTLADQKAVITHVEAHADFFANNEWFRMFTDGSSRTTTDESGEDRRRGPDAAGMLARHGDTIQEYMQDPDIERAEVERFIDHVLCLEDNIDQHIPYSPVETVPEEFEDIEGADVTEQLDDLELSEEVKRQVFDEEWLDAQRDDDENVTFPAEPDKDVLGFLRKHGMQYDADAERATEMEDWQIELLELLRREAYYFAPQKMTKVMNEGWASYWESLMMTGEQFAGDDEFILYSDHMSKVLGSGGLNPYSLGLEIWEYVENTENRREVIERLLRVKGITWRNFDDSVDYEMVQGRESHNDVTFLDEFLTQEFVDDNDYFTYEYTHASGDYRVTSTDHEDVKKKLMLQFTNFGKPTVVVEDGNYQNRNELLLAHQYNGVMLDIGQAKEVLKRTFELWGRPVNLLTIVKEFDDHDVEVAKREGHHHHHH | not soluble
MSLNNIMKVVIIGAGPAGVYSALTLSKHAKVTLIEREEKLGGTCVLYGCIPTKSILSQLIISRQASNMSLNTLREYALTSINTISKSLEHLLNSHGIEVIHANGFLRSSMVHASNTSLAADKVLVSTGTRRERLGKVKFTEDLAYTNEDYNKVVIVGGDAGGIELGWMMKKLGKEVHLIDKNDLLLQNIDRTLSEIVTNFLSQIGIKLYLGKKVSKIDETSVTLEDNQKISGDAVFVTFGRKPNIEGFEEIPHEKYIYVDEYLRTQIPNIYAAGDIIGTFTAHEAIYAGIIAAKNMLGEKREFIVEGIPKVIYIYPQIAYVGTTNGNCVTFNTLNLTRTIVERESEGFLKICERDNRVIGAVAFMPYAEDVISLISVLIRYQISLKDTIDLVMPHPSYLEAITEALNMLQSKGEGHHHHHH | not soluble
MSLNNTKQPVVILVGPTAVGKTNLSIQLAKSLNAEIISGDSMQIYKGMDIGTAKITEQEMEGVPHHLIDILDPQDSFSTADYQSLVRNKISEIANRGKLPMIDGGTGLYIQSELYDYTFTEEANDPVFRESMQMAAEREGADFLHAKLAAADPEAAAAIHPNNTRRVIRALEILHTSGKTMSQHLKEQKRELLYNAVLIGLTMDRDTLYERINQRVDLMMQSGLLPEVKRLYDKNVRDCQSIQAIGYKELYAYFDGFVTLSDAVEQLKQNSRRYAKRQLTWFRNKMQVTWFDMTPPVDMELKKKEIFTHIAGKLELEGHHHHHH | soluble
MSLNNYPFASMRDCFDMSAYFVVGPQDCKGRPVTDVVDDALRGGATFIQLRAKNADAKDITEMARDIAQVIKNSGKSDSVAFVIDDRVDVVWQARDKGIKVDGVHIGQTDMEPQEARALLGEDAIVGLSAETESLVKLINELPSGCIDYIGAGPLHVSTTKPEASVGGNDGSGHTLDEEQINAICAASEFPVVVGGGVHADDMEMLARSKAAGWFVVSAIAGADDPEAATREMVTRWKAVRGDAEGHHHHHH | soluble
MSLNPKAKFAVIDDLETSRLHISHILQEDGFTVDLFDSATQFLLMKDEILDYAGLIIDIHMPGYNGYELAETIHAMFGTSAPPFIFISASPESIRHDRFNTEHMWQGFAKPMDKNRFIDSIRVLSDKSSLKTEAFEPASVLLVEDEPINAEVVKTMLERNGHTVEVATTGAAALHLATTVPFNLILMDINLPDMSGIETTRCIKAQGVDTEIVALTGNAYEEDKLKTKEAGMSYHLVKPVMYHELNNVIKLALRVAHEGHHHHHH | soluble
MSLNPVNGAILSIEISHPNGFEIDENISAYHDAEYYMDRIFDSGNYDSLIVLTSIKILSQHWEIDNDMVVTSQSIRQLAIDTINSKAESGTIKNYWFKLQSLCEEFKNLSQETLSLSVFDNQVLTLNVNGHGIFRKSAFFESFANQKLNSADGKLMLIFNKFETFISRKSYHKLHEELLQLRKISANEITNLFTKHIEGKISTNEIQTILKDLEQIPGIVEIVKSLIGSSGFELIVDANSISSKELGAFHKISTVMIFKNIMETHKTLLLDLVVLFLTCETNDQIVEFVNQIRATLVQYDVMEVVFTTCLNKGEVETKNMGQVQNSIFWSSVVATHSQLKRLIESLQLNDGYEYFYNNVLPDDYLVDVVIELINNKEYFFLQKKFLTKLNQENKVEKLLVGLIYLFNNDVKSFYKIFNDYSNFQNFTENKIKNLNQDVNLQKFIEALLSNPSKSQYFHGLSKLVQSQIKTNDNKSQQEEHCFIEIASDFETLAIENEGHHHHHH | soluble
MSLNQSYFNLLGNITWLWMNSSLHKEWSCELLARNVIPAIENEQYMLLIDNGIPIAYCSWADLNLETEVKYIKDINSLTPEEWQSGDRRWIIDWVAPFGHSQLLYKKMCQKYPDMIVRSIRFYPKQKELGKIAYFKGGKLDKKTAKKRFDTYQEELATALKNEFNFIKKEGHHHHHH | soluble
MSLNRRHTIKHNFPIVGHFRYLLEKIGPELRQYIVANNREELPFNRRQRSWIYASSKQENNYQGFGTDQDQNSPGFVFIKPSMFSYAVKEGHPNKKKPDFVPCAKIMGAYNKRRRPYRPYSIINISGMSYGSLSARAVESLNKGALKAGCYQNTGEGSLAPHHKHGADIMFHFGTGYFGVRDEHGNFSMSKLKALVEANPCIRAIDLKLSQGAKPGKGGVLPASKITQEIADIRGLPMGKDVISPAYHSVFSNVPEMMDFIENIAQETGLPVGFKSAVGKMEMWVELADRMLEKGYGPDFITIDGGEGGTGAAPPAFADHVSLPFVYAFSNVYKIFAERGLTDRIVFAASGKLGFPESSLMAFALGADVIHVAREAMMSIGCIQAQVCHNNTCPSGVATQNKWLQSGIDVPLKADRLYNYIKNLRKEVLEITHACGYEHPSQMTMTDIDISMGDNNLTMPLVDAYKYNKIPVNFESMQKLADEGHHHHHH | not soluble
MSLNSEWGKFALWLKHQRISPAELLVPQPQEKLTGWSDPRISQERILGLLARGHSLALAVDKWQRAGLWILTRGDADYPVRLKNRLRTDAPPVLFGCGNKALLQAEGMAIVGSRDAPTDDLRYTQQLAAKLAQQGICVISGGARGIDECAMASALEAGGTAVGVLADSLLKTSTLVKWREGLIAGNLVLISPFYPEVRFTVGNAMARNKYIYCLAESAMVVRAGMTGGTITGAMEALKHQWLPVQVKPNQDMQSANSRLVENGASWSAEQAENVTIRLPDVPGLMYDRAEGHHHHHH | soluble
MSLNTEIEMNELLEKAKKIKCLICDVDGVLSDGLLHIDNHGNELKSFHVQDGMGLKLLMAAGIQVAIITTAQNAVVDHRMEQLGITHYYKGQVDKRSAYQHLKKTLGLNDDEFAYIGDDLPDLPLIQQVGLGVAVSNAVPQVLEFADWRTERTGGRGAVRELCDLILNAQNKAELAITGYLKQEGHHHHHH | soluble
MSLNTTFTKEDGTEVVIPFNGSQNGHPENEEPEVEEAAEPSSSVETLCGATRGDIIVMKHTTKALTELIERLLHSDEFEVRRCSNGQIISQGRCNGTTPGNGIGGGGASSEELEKALKDRDAARAEADKLHANYATLFASFNTVREAANDIRGEYEDARDKLKLAAAEVDEWQAKFLAVKDNANSELERASVEYDDLLRSHDENTKGLRLRVKRQEIELSSKNDEIKVLTNRVSELSQICDQLLNDVDVSDGMSVISTDA | not soluble
MSLNVQGNLFRPLTLPNGLSLENRFVLSPMVTNSSTSEGFVTDDDIAYAVRRAKSAPLQITGAAYITEYGQLFEYGFSVSKDEDIPGLTKLAKAMKSKGAKAVLQLTHAGRFSSHTLARHGYVYGPSPMQLQSPYPHQVKELTHKDILRIIDEYVQATRRAIQAGFDGVEISSAQRLLIQTFFSTFSNQRKDEYGPQTLTNRCRLGLEVFKAVQKVIREEAESDFILGFRATPEETRGSQIGYSIEEFMEFLEKILAIAQVDYLAIASWGHDVFRNTIRSEGVYKGQLVNQVIFEHFGDRVPIMATGGINSASKVFEALQHAHMIGASTPLVVDPEFLQKIKAKCSDQINLRIKVSDLEGLAIPKEGHHHHHH | not soluble
MSLNVVGYVRLSRDEDKENYSSIITQKNIIEEYSKNKNWTVNRIYVDDNCSGYTFERPEFLKMMYEIKERKIDVIVAKDLSRIGRNNGKVLVFIDKLKEKGIRLILVEEATGGLDLLEDNYDILGIKTWYNEMYVKDISRKIRASMHLKQKKGKEGHHHHHH | soluble
MSLNVVNSIFSKLSIAPMIDWTNSPFRTLMRLLAPNALLYTEMQTTGAVQNNPDRALYFNSVEHPLAIQLGGADKSALVKCAIIAEQKGFNEINLNLGCPSDKVQAGRFGACLMKEPEHVADCIRAIKQVVGIPVTAKTRIGIDNQDSYEFFRSFSLHLVEAGCDKLIIHARKAWLNGLNPKQNRTIPPVNYDYVYELKKEIPHIFITINGNILTVEEINNHLKHVDGVMLGRLACDNPYQIAEIHQALYPEFIKIKRSQLLMNYLDYWFDQSRANLSLSILVKPLFNLAFGLPGAKHWKKKLMNIIQEKNTSGFSELIQYLLNLEAINQVEEGHHHHHH | soluble
MSLNYTELEENIKKNNIENVYIMCGFNEKLMKESINKILKKSISQDFESLNYSVFDGNEVEFEDILNACETVPFMSEKRMVVVYRAGFLNDNSSGSNKNSDKLIKDIEKYVPNVPKHCILVMYYVFDNTREKPSYRVKKFDKKVCVVEFSKLRGMQFQKKVKDVFAEKGKQIGKTELNYFCSRVENNMDIVYNEIEKLCCYTLEKEITKESIDNLLQPNETDDIFNLVDYISQSKPEMAITVLNEIMYKGVKANSILYMVERQFKLMLSIKIGIENKQSKEALVKELKLNPYVCDKMINECKRFTMKKILKSLDICLRTEKELKSVSGDPKFKMEVLIINLAIEGHHHHHH | soluble
